To fix the notation:
B1: SEQ ID NO 37 (VHH)
VHH: QVQLQESGGGSVQTGGSLRLSCAASTSIYSINYMAWFRQAPGKGREGVAAVYIDDGRPYYADSVKGRFTISLDSAKNTVYLQMTSLKSEDTAMYYCAAAPGPLSRSYWYTSANYDYWGQGTQVTVSS
notes: pMECS-expressed; also called VHH numbered 37
B2: SEQ ID NO 66 (VHH)
VHH: QVQLQESGGGSVQTGGSLRLSCAASTSIYNNNYMAWFSQAPGKGREGVAAVYVGDGRTYYADSVKGRFTISLDSAKNTVYLQMNSLKPEDTAMYYCAAAPGPLSHNYWYTSANYDYWGQGTQVTVSS
notes: pMECS-expressed; also called VHH numbered 66
B3: SEQ ID NO 57 (VHH)
VHH: QVQLQESGGGSVQTGGSLRLSCAASTSIYSINYMAWFSQAPGKGREGVAAVYIDDGRPYYADSVKGRFTISLDSAKNTVYLQMNSLKSEDTAMYYCAAAPGPLSRNYWYTSANYDYWGQGTQVTVSS
notes: pMECS-expressed; also called VHH numbered 57
B4: SEQ ID NO 47 (VHH)
VHH: QVQLQESGGGSVQTGGSLRLSCTASTSIYNNNYMAWFSQSPGKGREGVAAVYMDDGRPYYADSVKGRFTISLDSAKNTMYLQMNSLKPEDTAMYYCAAAPGPLSRNYWYTSANYDYWGQGTQVTVSS
notes: pMECS-expressed; also called VHH numbered 47
B5: SEQ ID NO 46 (VHH)
VHH: QVQLQESGGGSVQTGGSLRLSCAASTSIDSNNYMAWFRQAPGKGREGVAAVYIDDGRPYYADSVKGRFTISLDSAKNTVYLQMNSLKPEDTAMYYCAAAPGPLSRHYWYTSANYDYWGPGTQVTVSS
notes: pMECS-expressed; also called VHH numbered 46
B6: SEQ ID NO 41 (VHH)
VHH: QVQLQESGGGSVQTGGSLRLSCAASTSIYSNNYMAWFRQAPGKGREGVAAVYIGDGRPYYADSAKGRFTISLDSAKNTVYLQMNSLKPEDTAMYYCAAAPGPLSRHYWYTSANYDYWGPGTQVTVSS
notes: pMECS-expressed; also called VHH numbered 41
B7: SEQ ID NO 51 (VHH)
VHH: QVQLQESGGGSVQTGGSLRLSCTASTSIYSNSYMAWFSQAPGKGREGVAAVYIDDGRPYYADSVKGRFTISLDSAKNTVYLQMNSLKPEDTAMYYCAAAPGPLSRHYWYTSANYDYWGQGTQVTVSS
notes: pMECS-expressed; also called VHH numbered 51
B8: SEQ ID NO 42 (VHH)
VHH: QVQLQESGGGSVQTGGSLTLSCAASTSIYSYNYMAWFRQAPGKGREGVAAVYIGDGRPYYADSVKGRFTISPDSAKNTVYLQMNSLKPEDTAMYYCAAAPGPLSRHYWYTSANYDYWGPGTQVTVSS
notes: pMECS-expressed; also called VHH numbered 42
B9: SEQ ID NO 54 (VHH)
VHH: QVQLQESGGGSVQTGGSLRLSCAPSTSIYDNNYMAWFSQAPGKGREGVAAIYIDDGRPYYADSVKGRFTISLDSAKNTVYLQMNSLKPEDTAMYYCAAAPGPLSHNYWYTSANYDYWGQGTQVTVSS
notes: pMECS-expressed; also called VHH numbered 54
B10: SEQ ID NO 62 (VHH)
VHH: QVQLQESGGGSVQAGGSLRLSCAASTSIYSNNYMAWFRQTPGKGREGVAAVYIDDGRPYYADSVKGRFTISLDSAKNTVYLQMNSLKPEDTAMYYCAAAPGPLSHDYWYTSANYDYWGPGTQVTVSS
notes: pMECS-expressed; also called VHH numbered 62
B11: SEQ ID NO 56 (VHH)
VHH: QVQLQESGGGSVQTGGSLRLSCAASPSIYSANYMAWFSQAPGKGREGVAAVYIGDGRPYYADSVKGRFTISLDSAKSTVYLQMNSLKPEDTAMYYCAAAPGPLSHNYWYTSANYDYWGQGTQVTVSS
notes: pMECS-expressed; also called VHH numbered 56
B12: SEQ ID NO 40 (VHH)
VHH: QVQLQESGGGSVQTGGSLRLSCAASTSIYSNNYMAWFSQAPGKGREGVAALYIGDGRPYYADSVKGRFTIALDSAKNTVYLQMNGLKPEDTAMYYCAAAPGPLKHNYWYTSANYDYWGQGTQVTVSS
notes: pMECS-expressed; also called VHH numbered 40
B13: SEQ ID NO 63 (VHH)
VHH: QVQLQESGGGSVQTGGSLRLSCAASTSIYSNNYMAWFSQAPGKGREGVAAVYIDDGRPYYADSVKGRFTISLDSAKNTVYLQMNRLKPEDTAMYYCAAAPGPLSHNYWYTSANYDYWGQGTQVTVSS
notes: pMECS-expressed; also called VHH numbered 63
B14: SEQ ID NO 44 (VHH)
VHH: QVQLQESGGGSVRTGGSLRLSCAASTSIYSLNYMAWFSQAPGKGREGVAAVYIDDGRPYYADHVKGRFTISLDTAKNTVYLQMNSLKPEDTAMYYCAAAPGPLSRNYWYTSANYDYWGQGTQVTVSS
notes: pMECS-expressed; also called VHH numbered 44
B15: SEQ ID NO 43 (VHH)
VHH: QVQLQESGGGSVQTGGSLRLSCAASSSIASNNYMAWFSQAPGKGREGVAAVYIGDGRPYYADSVKGRFTISLDSAKNTVYLQMNSLKPEDTAMYYCAAAPGPLSRNYWYTSANYDYWGQGTQVTVSS
notes: pMECS-expressed; also called VHH numbered 43
B16: SEQ ID NO 52 (VHH)
VHH: QVQLQESGGGSVQTGGSLRLSCAASTSIYSNNYMAWFRQAPGKGREGVAAVYVDDGRPYYADSVKGRFTISRDSAKNTVYLQMNSLKPEDTAMYYCAAAPGPLSRHYWYTSANYDYWGPGTQVTVSS
notes: pMECS-expressed; also called VHH numbered 52
B17: SEQ ID NO 64 (VHH)
VHH: QVQLQESGGGSVQTGGSLRLSCAASTSIYSNNYMAWFSQAPGKGREGVAAVYIDDGRPYYADSVKGRFTISLDSAKNTVYLQMNSLKPEDTAMYYCAATPGPLSQHYWYTSANYDYWGQGTQVTVSS
notes: pMECS-expressed; also called VHH numbered 64
B18: SEQ ID NO 55 (VHH)
VHH: QVQLQESGGGSVQTGGSLRLSCVASTSIFSNNYMAWFSQAPGKGREGVAAVYIGDGRPYYADSVKGRFTISLDSAKNTVYLQMNSLKPEDTAMYYCAAAPGPLSHNYWYTSANYDYWGQGTQVTVSS
notes: pMECS-expressed; also called VHH numbered 55
B19: SEQ ID NO 39 (VHH)
VHH: QVQLQESGGGSVQTGGSLRLSCAASTSIYSNNYMAWFSQAPGKGREGVAALYIGDGRPYYADSVKGRFTIALDSAKNTVYLQMNGLKPEDTAMYYCAAAPGPLKHNYWYTSANYDYWGQGTQVTVSS
notes: pMECS-expressed; also called VHH numbered 39
B20: SEQ ID NO 59 (VHH)
VHH: QVQLQESGGGSVQTGGSLRLSCACSTSIYSNNYMAWFSQAPGKGREGVAAVYIGDGRPYYTDSVKGRFTISLDSAKNTLYLQMNSLKPEDTAMYYCAAAPGPLSHNYWYTSANYDYWGQGTQVTVSS
notes: pMECS-expressed; also called VHH numbered 59
B21: SEQ ID NO 53 (VHH)
VHH: QVQLQESGGGSVQTGGSLRLSCAASTSIYSNNYMAWFSQAPGKGREGVAAVYIDDGRPYYADSVKGRFTISLDSAKNTVYLQMNSLKPEDTAMYYCAAAPGPLSRNYWYTSANYDYWGQGTQVTVSS
notes: pMECS-expressed; also called VHH numbered 53
B22: SEQ ID NO 49 (VHH)
VHH: QVQLQESGGGSVQTGGSLRLSCAASTSIYSINYMAWFSQAPGKGREGVAAVYIDDGRPYYADSVKGRFTISLDSAKNTVYLQMNSLKPEDTAMYYCAAAPGPLSRNYWYTSANYDYWGQGTQVTVSS
notes: pMECS-expressed; also called VHH numbered 49
B23: SEQ ID NO 67 (VHH)
VHH: QVQLQESGGGSVQTGGSLRLSCTASTSIYSNNYMAWFSQAPGKGREGVAAVYIDDGRPYYADSVKGRFTISLDSAKNTVYLQMNSLKPEDTAMYYCAAAPGPLSRNYWYTSANYDYWGQGTQVTVSS
notes: pMECS-expressed; also called VHH numbered 67
B24: SEQ ID NO 38 (VHH)
VHH: QVQLQESGGGSVQTGGSLRLSCAASTSIYSNNYMAWFSQAPGKGREGVAAVYIGDGRPYYADSAKGRFTISLDSAKNTVYLQMNSLKPEDTAMYYCAAAPGPLSRNYWYTSANYDYWGQGTQVTVSS
notes: pMECS-expressed; also called VHH numbered 38
B25: SEQ ID NO 48 (VHH)
VHH: QVQLQESGGGSVQTGGSLRLSCAASTSIYSNNYMAWFSQAPGKGREGVAAVYIDDGRTYYADSVKGRFTISLDSAKNTVYLQMNSLKPEDTAMYYCAAAPGPLSHNYWYASANYDYWGQGTQVTVSS
notes: pMECS-expressed; also called VHH numbered 48
B26: SEQ ID NO 60 (VHH)
VHH: QVQLQESGGGSVQTGGSLRLSCAASTSIYSMNYMAWFSQAPGKGREGVAAVYIEDGRPYYADSVKGRFTISPDRAKNTVYLQMNSLKPEDTAMYYCAAAPGPLSRNYWYTSANYDYWGQGTQVTVSS
notes: pMECS-expressed; also called VHH numbered 60

This note sets out measurements from US20190177416A1 (NANOMAB TECHNOLOGY, published 2019).

The target of this assay is T1, human PD-L1 protein (coated antigen) (human, UniProt Q9NZQ7 19-238, limits assumed).
T1 construct: Construct not described; also called PD-L1 antigen; antigenic protein PD-L1
T1 sequence (Q9NZQ7 19-238 limits assumed): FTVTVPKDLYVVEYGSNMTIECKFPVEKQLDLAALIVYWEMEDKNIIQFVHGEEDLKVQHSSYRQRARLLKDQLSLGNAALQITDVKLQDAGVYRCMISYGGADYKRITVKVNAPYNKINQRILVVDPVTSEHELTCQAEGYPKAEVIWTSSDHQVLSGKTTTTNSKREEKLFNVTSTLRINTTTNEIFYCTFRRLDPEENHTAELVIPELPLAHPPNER
Nature of the assay: PE-ELISA, crude extract on coated PD-L1. The procedure:
(1) From the cell culture dishes containing phage after 3-4 rounds of screening in Example 2, 1000 individual colonies were selected and inoculated into TB medium containing 100 μg/ml of ampicillin (1 liter of TB medium contains 2.3 g of potassium dihydrogen phosphate, 12.52 g of dipotassium hydrogen phosphate, 12 g of peptone, 24 g of yeast extract, 4 ml of glycerol), after growth to log phase, add a final concentration of […] of IPTG, culture at 28° C. overnight. (2) The crude antibody was obtained by the infiltration method, and the antibody was transferred to an antigen-coated ELISA plate and placed at room temperature for 1 hour. (3) Unbound antibody was washed away with PBST, and a mouse anti-HA tag antibody (anti-mouse anti-HA antibody, purchased from Beijing Kangwei Century Biotechnology Co., Ltd.) was added and placed at room temperature for 1 hour. (4) Unbound antibody was washed away with PBST, and anti-mouse alkaline phosphatase conjugate (goat anti-mouse alkaline phosphatase-labeled antibody, purchased from Amytech Co., Ltd.) was added and placed at room temperature for 1 hour. (5) Wash the unbound antibody with PBST, add alkaline phosphatase coloring solution, and read the absorbance at 405 nm on an ELISA apparatus. (6) When the OD value of the sample well is more than 3 times the OD value of the control well (Ratio+/−>3), it is judged as a positive clone hole. (7) The bacteria of the positive clone well were shaken in a LB liquid containing 100 μg per ml to extract a plasmid and perform sequencing.
Consider B1, for which the “OD ratio (experimental group (A405 nm)/control group (A405 nm))” value (shortened to “OD ratio”) is greater than 20.
With B2 the figure was greater than 20; with B3, greater than 20.
As for B4, the figure is greater than 20; as for B5, greater than 20; as for B6, greater than 20.
For the molecule B7, the “OD ratio” value was greater than 20.
With B8 the figure was greater than 20; with B9, greater than 20.
With B10 the figure was greater than 20; with B11, greater than 20.
As for B12, the “OD ratio” value is greater than 20.
As for B13, the figure is greater than 20.
With B14 the figure was greater than 20.
Regarding B15, the “OD ratio” value is greater than 20.
With B16 the figure was greater than 20; with B17, greater than 20.
As for B18, the “OD ratio” value is greater than 20.
As for B19, the figure is greater than 20; as for B20, greater than 20.
As for B21, the figure is greater than 20.
As for B22, the figure is greater than 20; as for B23, greater than 20.
For B24, the “OD ratio” value was greater than 20.
As for B25, the figure is greater than 20; as for B26, greater than 20.
